Data: patent US7588931B2, “High arachidonic acid producing strains of Yarrowia lipolytica” (E. I. du Pont de Nemours and Company, priority 2004, dated 2009)

What was measured:
Yarrowia lipolytica = test: Percent substrate conversion of desaturases and elongases expressed in Yarrowia lipolytica; assay type: cell-based; conditions: percent substrate conversion; for Codon-Opt. Gene % Sub. Conv.: codon-optimized gene expressed in Y. lipolytica
Method: The terms “conversion efficiency” and “percent substrate conversion” refer to the efficiency by which a particular enzyme (e.g., a desaturase or elongase) can convert substrate to product. The conversion efficiency is measured according to the following formula: ([product]/[substrate+product])*100, where ‘product’ includes the immediate product and all products in the pathway derived from it.
With respect to Δ12 desaturase, Applicants have made the surprising discovery that the Fusarium moniliforme Δ12 desaturase (encoded by SEQ ID NO:27) functions with greater efficiency than the native Yarrowia lipolytica Δ12 desaturase in producing 18:2 in Y. lipolytica (see WO 2005/047485). Specifically, expression of the F. moniliforme Δ12 desaturase under the control of the TEF promoter in Y. lipolytica was determined to produce higher levels of 18:2 (68% product accumulation of LA) than were previously attainable by expression of a chimeric gene encoding the Y. lipolytica Δ12 desaturase under the control of the TEF promoter (59% product accumulation of LA). This corresponds to a difference in percent substrate conversion (calculated as ([18:2+18:3]/[18:1+18:2+18:3])*100) of 85% versus 74%, respectively.
In the present invention, several desaturase and elongase genes from Table 5 were codon-optimized for expression in Yarrowia lipolytica, based on the host preferences described above. This was possible by first determining the Y. lipolytica codon usage profile (see WO 04/101757) and identifying those codons that were preferred. Then, for further optimization of gene expression in Y. lipolytica, the consensus sequence around the ‘ATG’ initiation codon was determined (i.e., ‘MAMMATGNHS’ (SEQ ID NO:356), wherein the nucleic acid degeneracy code used is as follows: M=A/C; S═C/G; H=A/C/T; and N=A/C/G/T). Table 7, below, compares the activity of native and codon-optimized genes when expressed in Y. lipolytica and provides details about each codon-optimized gene. % Sub. Conv. is the abbeviation for “percent substrate conversion” and Codon-Opt. is an abbreviation for “codon-optimized”.
Construct pDMW237 (FIG. 8C), an auto-replication plasmid comprising a chimeric FBAIN::1 g D9e::Pex20 gene, was transformed into Y. lipolytica Y2031 strain (Example 4) as described in the General Methods. Three transformants of Y2031 with pDMW237 were grown individually in MM media for two days and the cells were collected by centrifugation, lipids were extracted, and fatty acid methyl esters were prepared by trans-esterification, and subsequently analyzed with a Hewlett-Packard 6890 GC.
Construct pDMW297 was then used for transformation of strain Y2031 (Example 5) according to the General Methods. The transformant cells were plated onto MM selection media plates and maintained at 30° C. for 2 to 3 days. A total of 8 transformants grown on the MM plates were picked and re-streaked onto fresh MM plates. Once grown, these strains were individually inoculated into liquid MM at 30° C. and shaken at 250 rpm/min for 2 days. The cells were collected by centrifugation, lipids were extracted, and fatty acid methyl esters were prepared by trans-esterification, and subsequently analyzed with a Hewlett-Packard 6890 GC.

[1] = test system: β-glucuronidase (GUS) reporter; test: Relative promoter activity rank from comparative GUS reporter studies (histochemical, fluorometric and/or Real Time PCR); assay type: cell-based, Yarrowia lipolytica; conditions: relative to other promoters
Method: The activity of GPM is about the same as TEF, while the activity of GPD, FBA, FBAIN, FBAINm, GPDIN, GPAT, YAT1 and EXP1 are all greater than TEF (activity is quantified in a relative manner in the column titled “Activity Rank”, wherein a ‘1’ corresponds to the promoter with lowest activity, while a ‘7’ corresponds to the promoter with highest activity). […] GUS activity in each expressed construct was measured by histochemical and/or fluorometric assays (Jefferson, R. A. Plant Mol. Biol. Reporter 5:387-405 (1987)) and/or by use of Real Time PCR.

B1: Rattus norvegicus C16/18 elongase: GenBank AB071986; codon-optimized gene SEQ ID NO:52 (protein, listed as Rattus norvegicus)
chain: MDMSVLTLQEYEFEKQFNENEAIQWMQENWKKSFLFSALYAAFIFGGRHLMNKRAKFELRKPLVLWSLTLAVFSIFGALRTGAYMLYILMTKGLKQSVCDQSFYNGPVSKFWAYAFVLSKAPELGDTIFIILRKQKLIFLHWYHHITVLLYSWYSYKDMVAGGGWFMTMNYGVHAVMYSYYALRAAGFRVSRKFAMFITLSQITQMLMGCVINYLVFNWMQHDNDQCYSHFQNIFWSSLMYLSYLLLFCHFFFEAYIGKVKKATKAE
modifications: misc_feature: synthetic C16/18 elongase (codon-optimized)
Question: B1 was tested. Which “Codon-Opt. Gene % Sub. Conv.” value (Yarrowia lipolytica) did it give?
Answer: 43%

B2: Isochrysis galbana Δ5 desaturase: codon-optimized gene SEQ ID NO:10 (protein, listed as Isochrysis galbana)
chain: MVAGKSGAAAHVTHSSTLPREYHGATNDSRSEAADVTVSSIDAEKEMIINGRVYDVSSFVKRHPGGSVIKFQLGADASDAYNNFHVRSKKADKMLYSLPSRPAEAGYAQDDISRDFEKLRLELKEEGYFEPNLVHVSYRCVEVLAMYWAGVQLIWSGYWFLGAIVAGIAQGRCGWLQHEGGHYSLTGNIKIDRHLQMAIYGLGCGMSGCYWRNQHNKHHATPQKLGTDPDLQTMPLVAFHKIVGAKARGKGKAWLAWQAPLFFGGIICSLVSFGWQFVLHPNHALRVHNHLELAYMGLRYVLWHLAFGHLGLLSSLRLYAFYVAVGGTYIFTNFAVSHTHKDVVPPTKHISWALYSANHTTNCSDSPFVNWWMAYLNFQIEHHLFPSMPQYNHPKIAPRVRALFEKHGVEYDVRPYLECFRVTYVNLLAVGNPEHSYHEHTH
modifications: misc_feature: synthetic delta-5 desaturase (codon-optimized)
Question: How did the “Codon-Opt. Gene % Sub. Conv.” value (Yarrowia lipolytica) turn out when B2 was run?
Answer: 32%

Question: And the “Native Gene % Sub. Conv.” value (Yarrowia lipolytica; expressed in Y. lipolytica)?
Answer: 7%

B3: EXP1: Y. lipolytica export protein promoter, SEQ ID NO:364 (nucleic acid, listed as Yarrowia lipolytica)
DNA: GGAGTTTGGCGCCCGTTTTTTCGAGCCCCACACGTTTCGGTGAGTATGAGCGGCGGCAGATTCGAGCGTTTCCGGTTTCCGCGGCTGGACGAGAGCCCATGATGGGGGCTCCCACCACCAGCAATCAGGGCCCTGATTACACACCCACCTGTAATGTCATGCTGTTCATCGTGGTTAATGCTGCTGTGTGCTGTGTGTGTGTGTTGTTTGGCGCTCATTGTTGCGTTATGCAGCGTACACCACAATATTGGAAGCTTATTAGCCTTTCTATTTTTTCGTTTGCAAGGCTTAACAACATTGCTGTGGAGAGGGATGGGGATATGGAGGCCGCTGGAGGGAGTCGGAGAGGCGTTTTGGAGCGGCTTGGCCTGGCGCCCAGCTCGCGAAACGCACCTAGGACCCTTTGGCACGCCGAAATGTGCCACTTTTCAGTCTAGTAACGCCTTACCTACGTCATTCCATGCATGCATGTTTGCGCCTTTTTTCCCTTGCCCTTGATCGCCACACAGTACAGTGCACTGTACAGTGGAGGTTTTGGGGGGGTCTTAGATGGGAGCTAAAAGCGGCCTAGCGGTACACTAGTGGGATTGTATGGAGTGGCATGGAGCCTAGGTGGAGCCTGACAGGACGCACGACCGGCTAGCCCGTGACAGACGATGGGTGGCTCCTGTTGTCCACCGCGTACAAATGTTTGGGCCAAAGTCTTGTCAGCCTTGCTTGCGAACCTAATTCCCAATTTTGTCACTTCGCACCCCCATTGATCGAGCCCTAACCCCTGCCCATCAGGCAATCCAATTAAGCTCGCATTGTCTGCCTTGTTTAGTTTGGCTCCTGCCCGTTTCGGCGTCCACTTGCACAAACACAAACAAGCATTATATATAAGGCTCGTCTCTCCCTCCCAACCACACTCACTTTTTTGCCCGTCTTCCCTTGCTAACACAAAAGTCAAGAACACAAACAACCACCCCAACCCCCTTACACACAAGACATATCTACAGCA
modifications: misc_feature: Promoter EXP1
Question: B3 was tested. Which “Activity “Rank”” value [1] did it give?
Answer: 6

B4: FBAINm: modified version of the FBAIN promoter, SEQ ID NO:163 (nucleic acid, listed as Yarrowia lipolytica)
DNA: AAATTGCCCCGGAGAAGACGGCCAGGCCGCCTAGATGACAAATTCAACAACTCACAGCTGACTTTCTGCCATTGCCACTAGGGGGGGGCCTTTTTATATGGCCAAGCCAAGCTCTCCACGTCGGTTGGGCTGCACCCAACAATAAATGGGTAGGGTTGCACCAACAAAGGGATGGGATGGGGGGTAGAAGATACGAGGATAACGGGGCTCAATGGCACAAATAAGAACGAATACTGCCATTAAGACTCGTGATCCAGCGACTGACACCATTGCATCATCTAAGGGCCTCAAAACTACCTCGGAACTGCTGCGCTGATCTGGACACCACAGAGGTTCCGAGCACTTTAGGTTGCACCAAATGTCCCACCAGGTGCAGGCAGAAAACGCTGGAACAGCGTGTACAGTTTGTCTTAACAAAAAGTGAGGGCGCTGAGGTCGAGCAGGGTGGTGTGACTTGTTATAGCCTTTAGAGCTGCGAAAGCGCGTATGGATTTGGCTCATCAGGCCAGATTGAGGGTCTGTGGACACATGTCATGTTAGTGTACTTCAATCGCCCCCTGGATATAGCCCCGACAATAGGCCGTGGCCTCATTTTTTTGCCTTCCGCACATTTCCATTGCTCGGTACCCACACCTTGCTTCTCCTGCACTTGCCAACCTTAATACTGGTTTACATTGACCAACATCTTACAAGCGGGGGGCTTGTCTAGGGTATATATAAACAGTGGCTCTCCCAATCGGTTGCCAGTCTCTTTTTTCCTTTCTTTCCCCACAGATTCGAAATCTAAACTACACATCACAGAATTCCGAGCCGTGAGTATCCACGACAAGATCAGTGTCGAGACGACGCGTTTTGTGTAATGACACAATCCGAAAGTCGCTAGCAACACACACTCTCTACACAAACTAACCCAGCTCTGGTACC
modifications: misc_feature: Promoter FBAINm
Question: Which “Activity “Rank”” value [1] does the source give for B4 here?
Answer: 5

B5: Homo sapiens Δ5 desaturase: GenBank NP_037534; codon-optimized gene SEQ ID NO:13 (protein, listed as Homo sapiens)
chain: MAPDPVAAETAAQGPTPRYFTWDEVAQRSGCEERWLVIDRKVYNISEFTRRHPGGSRVISHYAGQDATDPFVAFHINKGLVKKYMNSLLIGELSPEQPSFEPTKNKELTDEFRELRATVERMGLMKANHVFFLLYLLHILLLDGAAWLTLWVFGTSFLPFLLCAVLLSAVQAQAGWLQHDFGHLSVFSTSKWNHLLHHFVIGHLKGAPASWWNHMHFQHHAKPNCFRKDPDINMHPFFFALGKILSVELGKQKKKYMPYNHQHKYFFLIGPPALLPLYFQWYIFYFVIQRKKWVDLAWMITFYVRFFLTYVPLLGLKAFLGLFFIVRFLESNWFVWVTQMNHIPMHIDHDRNMDWVSTQLQATCNVHKSAFNDWFSGHLNFQIEHHLFPTMPRHNYHKVAPLVQSLCAKHGIEYQSKPLLSAFADIIHSLKESGQLWLDAYLHQ
modifications: misc_feature: synthetic delta-5 desaturase (codon-optimized)
Question: With B5 as the molecule, how does the “Codon-Opt. Gene % Sub. Conv.” value (Yarrowia lipolytica) read?
Answer: 30%
